Columns and labels:
Assay in all cases: flow cytometry on 293T cells overexpressing EphA1-A8
[1] = target: T1, EphA3 overexpressed on 293T cells (UniProt P29320 21-983, limits assumed)
T1 construct: whole, on cells
T1 sequence (looked up): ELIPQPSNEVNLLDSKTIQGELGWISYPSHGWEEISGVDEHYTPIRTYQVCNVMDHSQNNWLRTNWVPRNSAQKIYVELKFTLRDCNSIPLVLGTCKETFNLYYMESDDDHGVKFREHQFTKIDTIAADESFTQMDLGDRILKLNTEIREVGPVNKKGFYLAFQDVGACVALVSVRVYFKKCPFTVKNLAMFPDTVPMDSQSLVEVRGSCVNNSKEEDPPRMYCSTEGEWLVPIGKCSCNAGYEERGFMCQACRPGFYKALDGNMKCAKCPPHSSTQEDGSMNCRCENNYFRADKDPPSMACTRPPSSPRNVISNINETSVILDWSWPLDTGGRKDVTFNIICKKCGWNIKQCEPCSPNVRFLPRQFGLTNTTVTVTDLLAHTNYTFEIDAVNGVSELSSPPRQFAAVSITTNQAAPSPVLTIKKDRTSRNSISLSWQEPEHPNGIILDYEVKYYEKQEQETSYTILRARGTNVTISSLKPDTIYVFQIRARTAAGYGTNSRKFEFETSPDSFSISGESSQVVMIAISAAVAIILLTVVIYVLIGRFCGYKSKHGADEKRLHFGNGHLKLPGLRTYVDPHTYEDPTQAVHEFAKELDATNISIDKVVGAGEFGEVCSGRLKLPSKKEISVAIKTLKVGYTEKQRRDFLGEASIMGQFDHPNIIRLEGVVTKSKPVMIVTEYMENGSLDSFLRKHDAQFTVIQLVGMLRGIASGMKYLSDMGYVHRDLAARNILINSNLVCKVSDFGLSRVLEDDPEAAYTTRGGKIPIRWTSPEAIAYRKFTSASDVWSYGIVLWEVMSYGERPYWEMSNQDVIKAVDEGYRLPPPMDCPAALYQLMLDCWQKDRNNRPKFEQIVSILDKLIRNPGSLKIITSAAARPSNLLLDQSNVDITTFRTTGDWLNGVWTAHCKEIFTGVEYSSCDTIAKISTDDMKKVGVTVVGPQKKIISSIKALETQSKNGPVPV
Experimental: (§1) To detect the binding specificity of scFv, 293T cells were transformed with EphA1-A8 plasmids individually for overexpression of different EphA molecules. The cell line was freshly prepared and washed with FACS buffer (2% FBS in PBS). The cells were seeded at 1×10⁵ cells/well into a 96-well Ubottom plate and incubated with scFv for 1 h at 4° C. After the plate was washed with FACS buffer, the anti-hemagglutinin (HA) antibody was added for scFv binding detection (scFv was fused with a HA tag) and subsequently developed using an FITC-conjugated secondary antibody. Finally, the cell binding signal was analyzed using a FACS can flow cytometer.

[2] = target: T2, EphA4 overexpressed on 293T cells (UniProt P54764 20-986, limits assumed)
T2 construct: whole, on cells
T2 sequence (P54764 20-986 limits assumed): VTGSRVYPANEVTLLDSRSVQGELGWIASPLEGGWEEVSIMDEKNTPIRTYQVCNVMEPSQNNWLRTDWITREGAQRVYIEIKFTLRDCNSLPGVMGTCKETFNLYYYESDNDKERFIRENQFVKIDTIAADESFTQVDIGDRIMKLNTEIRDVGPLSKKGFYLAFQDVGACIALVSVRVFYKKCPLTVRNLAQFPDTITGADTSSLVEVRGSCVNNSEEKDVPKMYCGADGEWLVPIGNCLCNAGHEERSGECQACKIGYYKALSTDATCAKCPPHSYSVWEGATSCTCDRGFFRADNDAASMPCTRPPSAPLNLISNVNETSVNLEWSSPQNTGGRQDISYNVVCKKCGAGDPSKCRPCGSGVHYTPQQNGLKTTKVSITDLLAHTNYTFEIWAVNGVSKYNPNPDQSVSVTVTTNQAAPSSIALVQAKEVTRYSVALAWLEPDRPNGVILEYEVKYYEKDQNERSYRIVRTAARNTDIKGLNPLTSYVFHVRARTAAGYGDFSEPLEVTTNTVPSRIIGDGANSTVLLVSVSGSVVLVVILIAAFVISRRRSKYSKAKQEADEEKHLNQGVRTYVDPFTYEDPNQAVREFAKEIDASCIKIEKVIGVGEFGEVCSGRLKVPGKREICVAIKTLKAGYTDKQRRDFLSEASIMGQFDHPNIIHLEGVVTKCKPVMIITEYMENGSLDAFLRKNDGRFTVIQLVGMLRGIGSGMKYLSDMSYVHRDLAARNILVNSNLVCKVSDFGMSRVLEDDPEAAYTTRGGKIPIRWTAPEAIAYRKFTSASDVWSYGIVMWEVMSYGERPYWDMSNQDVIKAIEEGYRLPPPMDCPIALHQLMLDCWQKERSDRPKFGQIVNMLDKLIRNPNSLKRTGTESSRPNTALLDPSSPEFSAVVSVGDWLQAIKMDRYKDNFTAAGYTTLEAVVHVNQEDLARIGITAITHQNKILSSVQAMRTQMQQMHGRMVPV
Experimental: as §1

[3] = target: T3, EphA5 overexpressed on 293T cells (UniProt P54756 25-1037, limits assumed)
T3 construct: whole, on cells
T3 sequence (P54756 25-1037 limits assumed): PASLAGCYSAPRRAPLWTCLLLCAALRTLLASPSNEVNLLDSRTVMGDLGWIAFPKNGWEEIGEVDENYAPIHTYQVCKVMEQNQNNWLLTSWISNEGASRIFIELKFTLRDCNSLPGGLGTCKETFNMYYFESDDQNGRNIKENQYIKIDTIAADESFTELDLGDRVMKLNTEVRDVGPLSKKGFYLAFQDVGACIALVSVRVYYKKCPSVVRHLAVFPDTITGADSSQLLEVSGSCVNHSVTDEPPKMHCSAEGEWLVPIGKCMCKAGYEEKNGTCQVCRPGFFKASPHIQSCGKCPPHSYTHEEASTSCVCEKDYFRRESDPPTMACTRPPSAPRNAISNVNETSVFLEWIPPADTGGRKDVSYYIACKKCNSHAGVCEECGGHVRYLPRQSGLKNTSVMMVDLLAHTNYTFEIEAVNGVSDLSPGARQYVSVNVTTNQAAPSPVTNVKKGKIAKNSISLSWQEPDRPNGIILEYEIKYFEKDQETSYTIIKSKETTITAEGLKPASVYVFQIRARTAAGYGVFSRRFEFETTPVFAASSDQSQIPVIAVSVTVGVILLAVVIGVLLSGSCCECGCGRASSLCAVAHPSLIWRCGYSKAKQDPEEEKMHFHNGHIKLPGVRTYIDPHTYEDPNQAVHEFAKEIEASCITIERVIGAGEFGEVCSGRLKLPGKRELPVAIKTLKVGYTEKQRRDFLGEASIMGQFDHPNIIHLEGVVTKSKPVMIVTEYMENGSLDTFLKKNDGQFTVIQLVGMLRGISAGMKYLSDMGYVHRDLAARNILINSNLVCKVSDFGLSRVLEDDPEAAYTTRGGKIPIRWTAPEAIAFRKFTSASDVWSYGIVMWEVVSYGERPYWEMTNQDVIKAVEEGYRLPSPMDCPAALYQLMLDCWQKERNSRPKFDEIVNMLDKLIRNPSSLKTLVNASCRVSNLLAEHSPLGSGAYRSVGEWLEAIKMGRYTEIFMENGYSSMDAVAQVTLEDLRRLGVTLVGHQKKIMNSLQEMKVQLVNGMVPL
Experimental: as §1

[4] = target: T4, EphA7 overexpressed on 293T cells (UniProt Q15375 28-998, limits assumed)
T4 construct: whole, on cells
T4 sequence (Q15375 28-998 limits assumed): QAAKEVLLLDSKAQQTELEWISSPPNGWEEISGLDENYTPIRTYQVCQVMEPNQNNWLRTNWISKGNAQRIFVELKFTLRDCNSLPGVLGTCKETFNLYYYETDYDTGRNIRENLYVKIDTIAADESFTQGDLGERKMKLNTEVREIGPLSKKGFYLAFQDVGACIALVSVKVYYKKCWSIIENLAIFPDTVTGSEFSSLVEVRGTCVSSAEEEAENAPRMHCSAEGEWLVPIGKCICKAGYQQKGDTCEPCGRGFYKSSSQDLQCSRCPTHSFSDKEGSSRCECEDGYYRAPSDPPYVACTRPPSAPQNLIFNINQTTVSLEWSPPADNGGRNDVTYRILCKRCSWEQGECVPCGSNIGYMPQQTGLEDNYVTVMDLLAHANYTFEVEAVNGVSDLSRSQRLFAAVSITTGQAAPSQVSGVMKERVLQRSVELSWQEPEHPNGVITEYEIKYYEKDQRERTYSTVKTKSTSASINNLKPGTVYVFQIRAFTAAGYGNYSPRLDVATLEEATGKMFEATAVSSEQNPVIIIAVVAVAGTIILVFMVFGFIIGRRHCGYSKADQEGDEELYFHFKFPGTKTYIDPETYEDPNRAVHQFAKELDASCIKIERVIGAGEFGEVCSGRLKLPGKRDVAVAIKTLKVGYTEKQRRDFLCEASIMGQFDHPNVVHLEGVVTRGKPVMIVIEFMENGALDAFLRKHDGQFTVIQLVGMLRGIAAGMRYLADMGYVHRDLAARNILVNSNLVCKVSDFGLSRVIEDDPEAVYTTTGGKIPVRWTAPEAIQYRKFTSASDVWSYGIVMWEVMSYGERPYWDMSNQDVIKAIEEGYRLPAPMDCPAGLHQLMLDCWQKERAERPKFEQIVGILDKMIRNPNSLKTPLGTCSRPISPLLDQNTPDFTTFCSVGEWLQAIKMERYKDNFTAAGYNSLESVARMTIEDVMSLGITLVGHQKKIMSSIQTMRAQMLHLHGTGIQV
Experimental: as §1

[5] = target: T5, EphA8 overexpressed on 293T cells (UniProt P29322 28-1005, limits assumed)
T5 construct: whole, on cells
T5 sequence (looked up): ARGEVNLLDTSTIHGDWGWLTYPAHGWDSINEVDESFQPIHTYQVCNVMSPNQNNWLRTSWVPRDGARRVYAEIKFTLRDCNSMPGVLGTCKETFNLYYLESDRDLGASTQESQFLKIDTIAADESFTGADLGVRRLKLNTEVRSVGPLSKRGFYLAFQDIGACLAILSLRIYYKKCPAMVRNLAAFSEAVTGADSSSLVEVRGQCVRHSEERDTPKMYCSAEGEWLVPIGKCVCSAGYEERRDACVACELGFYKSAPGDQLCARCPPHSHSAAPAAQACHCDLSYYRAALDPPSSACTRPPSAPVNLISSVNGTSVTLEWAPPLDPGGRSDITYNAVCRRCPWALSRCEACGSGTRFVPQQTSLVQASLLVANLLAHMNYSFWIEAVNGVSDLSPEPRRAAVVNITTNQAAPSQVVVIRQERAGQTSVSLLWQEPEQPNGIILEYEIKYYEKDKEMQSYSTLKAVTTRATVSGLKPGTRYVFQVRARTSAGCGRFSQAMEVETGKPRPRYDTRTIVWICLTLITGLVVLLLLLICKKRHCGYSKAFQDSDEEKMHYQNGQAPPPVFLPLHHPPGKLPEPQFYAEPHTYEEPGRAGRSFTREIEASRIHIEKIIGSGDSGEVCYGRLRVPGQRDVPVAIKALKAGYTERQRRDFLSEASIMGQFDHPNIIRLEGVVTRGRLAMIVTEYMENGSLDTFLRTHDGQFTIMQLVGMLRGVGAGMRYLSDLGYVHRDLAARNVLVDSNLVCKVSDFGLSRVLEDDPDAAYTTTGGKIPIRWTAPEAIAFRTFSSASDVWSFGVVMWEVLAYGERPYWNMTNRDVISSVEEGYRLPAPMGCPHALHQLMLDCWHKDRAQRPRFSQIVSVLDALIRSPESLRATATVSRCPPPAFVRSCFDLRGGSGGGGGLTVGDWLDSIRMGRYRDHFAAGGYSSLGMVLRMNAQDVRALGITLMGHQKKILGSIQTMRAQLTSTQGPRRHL
Experimental: as §1

Measured: binding result

B1: Humanized scFv hSD5 (scFv)
scFv: LTQPPSVSVSPGQTVRITCSGSSGSYGWYQQKSPGQAPVTLIYDNDKRPSGIPERFSGSSSGSTSTLTISGVQAEDEADYYCGSADSSTYVGMFGGGTKLTVLGQSSRSSQVQLVESGGGLVQPGGSLRLSCAASGFTFSDYGMGWVRQAPGKGLEWVAGISAAGSFTPYGAAVKGRFTISRDNSKNTVYLQMNSLRAEDTAVYYCARIPSGYRAGEIYTWGQGTLVTVSS
notes: also called hSD5 scFv; Humanized scFv hSDS
no binding: all assays above

Source: patent publication US20250340655A1, “EPHA2-TARGETING ANTIBODIES AND THEIR APPLICATIONS IN CANCER TREATMENT” (TAIPEI MEDICAL UNIVERSITY, priority 2022, published 2025)
